This assay deals with His-nNOS(1-299) (UniProt P29475-1 1-299). The assay can be described thus: AlphaScreen or HTRF. Background: In Alpha technology, singlet oxygen from a donor bead excites a nearby acceptor bead.
His-nNOS(1-299), sequence (P29475 1-299): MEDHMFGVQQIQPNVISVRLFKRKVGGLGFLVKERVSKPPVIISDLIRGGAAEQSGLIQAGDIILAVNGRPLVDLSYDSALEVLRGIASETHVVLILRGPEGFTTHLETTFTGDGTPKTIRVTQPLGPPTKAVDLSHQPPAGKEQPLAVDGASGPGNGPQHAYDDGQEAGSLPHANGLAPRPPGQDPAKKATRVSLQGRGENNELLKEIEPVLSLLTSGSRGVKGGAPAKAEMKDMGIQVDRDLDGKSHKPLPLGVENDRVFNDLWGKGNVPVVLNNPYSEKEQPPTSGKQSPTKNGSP

What is called IC50 is the concentration at which inhibition is half-maximal. The low end stands for inhibition by little substance, the high end for a need for much substance. The molecule GRKKRRQRRRYAGQWGESV [L-TAT-GESV] registered a concentration for half-maximal inhibition (IC50) of 4.9 µM. That is a single-digit micromolar value.

Values taken from PMC6144507 (Molecular Pain, 2018).
